The values below are quoted from earlier work in paper PMC13371949 (Journal of peptide science : an official publication of the …, 2025).

The conditions of series [1]: previous work.

On to glucagon [glucagon control], for which the isoelectric point result is “near neutral”. Besides, the “solubility at pH 7” value (pH 7) is recorded as “limited solubility”. Also, the “time to fibril formation in solution” value in series [1] was ~ 11 hours.
